Data taken from the Human Domainome abundance scans (Beltran et al. 2025).
± gives the uncertainty stated by the source.

B1: SWI/SNF-related matrix-associated actin-dependent regulator of chromatin subfamily B member 1, residues 181 to 248; numbered along this chain, Q12824 (parent)
chain: SQPEVLVPIRLDMEIDGQKLRDAFTWNMNEKLMTPEMFSEILCDDLDLNPLTFVPAIASAIRQQIESY

Variants of: B1
Assay: abundance fitness (aPCA) (normalised: wild type 0, dead -1); higher = more abundant; growth selection in yeast, the domain comes from the species named
Details: Homo sapiens

Variant	abundance fitness
SQPEVLVPIRLDMEIDGQKLRDAFTWNMNEKLMTPEMFSEILCTDLDLNPLTFVPAIASAIRQQIESY [D44T]	-0.467 ± 0.28
SQPEVLVPIRLDMEIDGQKLRDAFTWNMNEKLMTPEMFSEILCDDLDLEPLTFVPAIASAIRQQIESY [N49E]	-0.292 ± 0.053
SQPEVLVPIRLDMEIDGQKLRDAFTWNMNEKLMTPEMFSEILCDDLDLPPLTFVPAIASAIRQQIESY [N49P]	-0.097 ± 0.068
SQPEVLVPIRLDMEIDGQKLRDAFTWNMNEKLMTPEMFSEILCDDLDLFPLTFVPAIASAIRQQIESY [N49F]	-0.923 ± 0.12
SQPEVLVPIRLDMEIDGQKLRDAFTWNMNEKLMTPEMFSEILCDDLDLKPLTFVPAIASAIRQQIESY [N49K]	-0.824 ± 0.13
SQPEVLVPIRLDMEIDGQKLRDAFTWNMNEKLMTPEMFSEILCDDLDLYPLTFVPAIASAIRQQIESY [N49Y]	-0.666 ± 0.11
SQPEVLVPIRLDMEIDGQKLRDAFTWNMNEKLMTPEMFSEILCDDLDLVPLTFVPAIASAIRQQIESY [N49V]	-0.814 ± 0.076
SQPEVLVPIRLDMEIDGQKLRDAFTWNMNEKLMTPEMFSEILCDDLDLWPLTFVPAIASAIRQQIESY [N49W]	-0.783 ± 0.13
SQPEVLVPIRLDMEIDGQKLRDAFTWNMNEKLMTPEMFSEILCDDLDLSPLTFVPAIASAIRQQIESY [N49S]	-0.498 ± 0.058
SQPEVLVPIRLDMEIDGQKLRDAFTWNMNEKLMTPEMFSEILCDDLDLCPLTFVPAIASAIRQQIESY [N49C]	-0.356 ± 0.075
SQPEVLVPIRLDMEIDGQKLRDAFTWNMNEKLMTPEMFSEILCDDLDLLPLTFVPAIASAIRQQIESY [N49L]	-0.924 ± 0.079
SQPEVLVPIRLDMEIDGQKLRDAFTWNMNEKLMTPEMFSEILCDDLDLIPLTFVPAIASAIRQQIESY [N49I]	-0.932 ± 0.23
SQPEVLVPIRLDMEIDGQKLRDAFTWNMNEKLMTPEMFSEILCDDLDLHPLTFVPAIASAIRQQIESY [N49H]	-0.355 ± 0.14
SQPEVLVPIRLDMEIDGQKLRDAFTWNMNEKLMTPEMFSEILCDDLDLTPLTFVPAIASAIRQQIESY [N49T]	-0.874 ± 0.076
SQPEVLVPIRLDMEIDGQKLRDAFTWNMNEKLMTPEMFSEILCDDLDLQPLTFVPAIASAIRQQIESY [N49Q]	-0.458 ± 0.055
SQPEVLVPIRLDMEIDGQKLRDAFTWNMNEKLMTPEMFSEILCDDLDLGPLTFVPAIASAIRQQIESY [N49G]	-0.735 ± 0.11
SQPEVLVPIRLDMEIDGQKLRDAFTWNMNEKLMTPEMFSEILCDDLDLRPLTFVPAIASAIRQQIESY [N49R]	-0.789 ± 0.09
SQPEVLVPIRLDMEIDGQKLRDAFTWNMNEKLMTPEMFSEILCDDLDLDPLTFVPAIASAIRQQIESY [N49D]	-0.057 ± 0.046
SQPEVLVPIRLDMEIDGQKLRDAFTWNMNEKLMTPEMFSEILCDDLDLMPLTFVPAIASAIRQQIESY [N49M]	-0.846 ± 0.13
SQPEVLVPIRLDMEIDGQKLRDAFTWNMNEKLMTPEMFSEILCDDTDLNPLTFVPAIASAIRQQIESY [L46T]	-0.954 ± 0.24

Variant	abundance fitness
SQPEVLVPIRLDMEIDGQKLRDAFTWNMNEKLMTPEMFSEILCDDCDLNPLTFVPAIASAIRQQIESY [L46C]	-0.231 ± 0.2
SQPEVLVPIRLDMEIDGQKLRDAFTWNMNEKLMTPEMFSEILCDDWDLNPLTFVPAIASAIRQQIESY [L46W]	0.017 ± 0.069
SQPEVLVPIRLDMEIDGQKLRDAFTWNMNEKLMTPEMFSEILCDDHDLNPLTFVPAIASAIRQQIESY [L46H]	0.318 ± 0.14
SQPEVLVPIRLDMEIDGQKLRDAFTWNMNEKLMTPEMFSEILCDDKDLNPLTFVPAIASAIRQQIESY [L46K]	0.211 ± 0.075
SQPEVLVPIRLDMEIDGQKLRDAFTWNMNEKLMTPEMFSEILCDDGDLNPLTFVPAIASAIRQQIESY [L46G]	-0.37 ± 0.12
SQPEVLVPIRLDMEIDGQKLRDAFTWNMNEKLMTPEMFSEILCDDVDLNPLTFVPAIASAIRQQIESY [L46V]	-0.746 ± 0.12
SQPEVLVPIRLDMEIDGQKLRDAFTWNMNEKLMTPEMFSEILCDDMDLNPLTFVPAIASAIRQQIESY [L46M]	0.05 ± 0.21
SQPEVLVPIRLDMEIDGQKLRDAFTWNMNEKLMTPEMFSEILCDDYDLNPLTFVPAIASAIRQQIESY [L46Y]	-0.038 ± 0.099
SQPEVLVPIRLDMEIDGQKLRDAFTWNMNEKLMTPEMFSEILCDDEDLNPLTFVPAIASAIRQQIESY [L46E]	-0.204 ± 0.13
SQPEVLVPIRLDMEIDGQKLRDAFTWNMNEKLMTPEMFSEILCDDSDLNPLTFVPAIASAIRQQIESY [L46S]	-0.694 ± 0.1
SQPEVLVPIRLDMEIDGQKLRDAFTWNMNEKLMTPEMFSEILCDDRDLNPLTFVPAIASAIRQQIESY [L46R]	0.161 ± 0.046
SQPEVLVPIRLDMEIDGQKLRDAFTWNMNEKLMTPEMFSEILCDDADLNPLTFVPAIASAIRQQIESY [L46A]	-0.125 ± 0.051
SQPEVLVPIRLDMEIDGQKLRDAFTWNMNEKLMTPEMFSEILCDDQDLNPLTFVPAIASAIRQQIESY [L46Q]	-0.162 ± 0.064
SQPEVLVPIRLDMEIDGQKLRDAFTWNMNEKLMTPEMFSEILCDDFDLNPLTFVPAIASAIRQQIESY [L46F]	-0.091 ± 0.09
SQPEVLVPIRLDMEIDGQKLRDAFTWNMNEKLMTPEMFSEILCDDPDLNPLTFVPAIASAIRQQIESY [L46P]	-1.08 ± 0.23
SQPEVLVPIRLDMEIDGQKLRDAFTWNMNEKLMTPEMFSEILCDDNDLNPLTFVPAIASAIRQQIESY [L46N]	-0.271 ± 0.17
SQPEVLVPIRLDMEIDGQKLRDAFTWNMNEKLMTPEMFSEILCDHLDLNPLTFVPAIASAIRQQIESY [D45H]	-0.143 ± 0.39
SQPEVLVPIRLDMEIDGQKLRDAFTWNMNEKLMTPEMFSEILCDRLDLNPLTFVPAIASAIRQQIESY [D45R]	0.193 ± 0.15
SQPEVLVPIRLDMEIDGQKLRDAFTWNMNEKLMTPEMFSEILCDQLDLNPLTFVPAIASAIRQQIESY [D45Q]	-0.284 ± 0.48
SQPEVLVPIRLDMEIDGQKLRDAFTWNMNEKLMTPEMFSEILCDGLDLNPLTFVPAIASAIRQQIESY [D45G]	-0.185 ± 0.26
